Assay results from patent US20230242646A1.

Tests used:
[1] = biological target: membrane-bound full-length human CD89 on HEK293F cells (human) (UniProt P24071); assay: FACS HEK293F-huCD89; non-aggregated serum IgA
[2] = biological target: membrane-bound full-length human CD89 on HEK293F cells (human) (UniProt P24071); assay: FACS HEK293F-huCD89; heat-aggregated serum IgA
[3] = biological target: membrane-bound full-length human CD89 on HEK293F cells (human) (UniProt P24071); assay: FACS HEK293F-huCD89, 10 ug/mL; competitor PE-A3
[4] = biological target: membrane-bound full-length human CD89 on HEK293F cells (human) (UniProt P24071); assay: FACS HEK293F-huCD89, 10 ug/mL; competitor PE-A59
[5] = biological target: membrane-bound full-length human CD89 on HEK293F cells (human) (UniProt P24071); assay: FACS HEK293F-huCD89, 10 ug/mL; competitor PE-MIP8a
[6] = biological target: membrane-bound full-length human CD89 on HEK293F cells (human) (UniProt P24071); assay: FACS HEK293F-huCD89, titrated Ab; non-aggregated serum IgA
[7] = biological target: membrane-bound full-length human CD89 on HEK293F cells (human) (UniProt P24071); assay: FACS HEK293F-huCD89, titrated Ab; heat-aggregated serum IgA
[8] = biological target: membrane-bound full-length human CD89 on HEK293F cells (human) (UniProt P24071); assay: FACS, unlabelled antibody before A3-PE on HEK293F-huCD89
[9] = biological target: membrane-bound full-length human CD89 on HEK293F cells (human) (UniProt P24071); assay: FACS HEK293F-huCD89, 10 ug/mL; heat-aggregated serum IgA (similar with non-aggregated)
[10] = biological target: membrane-bound full-length human CD89 on HEK293F cells (human) (UniProt P24071); assay: FACS, antibody before non-aggregated serum IgA on HEK293F-huCD89; IgA detected
[11] = biological target: membrane-bound full-length human CD89 on HEK293F cells (human) (UniProt P24071); assay: FACS, antibody before heat-aggregated serum IgA on HEK293F-huCD89; IgA detected
[12] = biological target: membrane-bound full-length human CD89 on HEK293F cells (human) (UniProt P24071); assay: FACS, antibody before non-aggregated serum IgA on HEK293F-huCD89; IgA detected; remark: listed apart in the source
[13] = biological target: membrane-bound full-length human CD89 on HEK293F cells (human) (UniProt P24071); assay: FACS, antibody before heat-aggregated serum IgA on HEK293F-huCD89; IgA detected; remark: listed apart in the source
[14] = biological target: membrane-bound full-length human CD89 on HEK293F cells (human) (UniProt P24071); assay: FACS, unlabelled antibody before A59-PE on HEK293F-huCD89
[15] = biological target: membrane human CD89 on ex vivo primary human neutrophilic granulocytes or monocytic U937 cells (human) (UniProt P24071)
[16] = biological target: membrane-bound full-length human CD89 on HEK293F cells (human) (UniProt P24071); assay: FACS on HEK293F-huCD89
[17] = biological target: recombinant C-terminal polyhistidine-tagged human (extracellular) CD89 (Sino Biological) (human) (UniProt P24071); assay: ELISA on coated rhuCD89
[18] = biological target: membrane-bound full-length human CD89 on HEK293F cells (human) (UniProt P24071); assay: FACS, unlabelled antibody before MIP8a-PE on HEK293F-huCD89
[19] = biological target: membrane-bound full-length human CD89 on HEK293F cells (human) (UniProt P24071); assay: FACS, antibody before serum IgA on HEK293F-huCD89; IgA detected
[20] = biological target: recombinant C-terminal polyhistidine-tagged human (extracellular) CD89 (Sino Biological) (human) (UniProt P24071); assay: ELISA, antibody before serum IgA on coated rhuCD89; IgA detected
[21] = biological target: membrane-bound full-length human CD89 on HEK293F cells (human) (UniProt P24071); assay: FACS, antibody before secretory IgA on HEK293F-huCD89; IgA detected

maximum inhibition of IgA binding [1] [%] | maximum inhibition of IgA binding [2] [%] | % blocking of PE-A3 binding [3] [%] | % blocking of PE-A59 binding [4] [%] | % blocking of PE-MIP8a binding [5] [%] | maximum inhibition of IgA binding [6] [%] | maximum inhibition of IgA binding [7] [%] | IC50 (read off the curve) [8] [µg/mL] | % blocking of IgA binding [9] [%] | IC50 (read off the curve) [10] [µg/mL] | IC50 (read off the curve) [11] [µg/mL] | IC50 (read off the curve) [12] [µg/mL] | IC50 (read off the curve) [13] [µg/mL] | Substance | further results
60 | 60 | > 90 | > 90 | < 25 | 60 | 60 | 0.4 | 60 | 0.4 | 0.4 | 0.8 | 0.7 | mouse anti-human CD89 antibody clone A3 (Santa Cruz Biotechnology) | –
60 | 60 | > 90 | > 90 | < 25 | 60 | 60 | – | 60 | – | – | 1 | 1 | mouse anti-human CD89 antibody clone A59 (BD Biosciences) | IC50 (read off the curve) [14]: 0.6 µg/mL
– | – | 55 | 50 | > 90 | – | – | 0.2 | – | 0.2 | 0.2 | 0.7 | 0.7 | mouse anti-human CD89 antibody clone MIP8a (BioRad) | IC50 (read off the bars), binding of granulocytes to plate-bound serum IgA [Donor 3] [15]: 0.6 µg/mL; EC50 (read off the curve) [16]: 0.2 µg/mL; EC50 (read off the curve) [17]: 0.02 µg/mL; IC50 (read off the curve) [18]: 0.3 µg/mL; IC50 (read off the curve) [19]: 0.2 µg/mL; IC50 (read off the curve) [20]: 0.07 µg/mL; IC50 (read off the curve) [21]: 0.4 µg/mL
